In patent US20250152742A1, “COMPOSITIONS AND METHODS FOR NEUROLOGICAL DISEASES” (Trames Bio, Inc., priority 2022, published 2025):

System: engineered chimeric receptor SEQ ID NO: 33 and its mutants (human α7-nAChR ligand binding domain / human GlyRα1 ion pore domain) in Lenti-X 293T cells
Assay: YFP fluorescence quenching anion reporter plate reader assay (percent quench, EC50)
Format: cell-based
Settings: for YFP fluorescence quenching using CNL001 (percent quench): receptor named in row; for YFP fluorescence quenching using Facinicline, 30 nM fac: ligand Facinicline 30 nM; for YFP fluorescence quenching using Facinicline, 300 nM fac: ligand Facinicline 300 nM; for YFP fluorescence quenching using Facinicline, 30 uM fac: ligand Facinicline 30 uM; for YFP fluorescence quenching using TC-6987, 1 uM tc6987: ligand TC-6987 1 uM; for YFP fluorescence quenching using TC-6987, 10 uM tc6987: ligand TC-6987 10 uM; for YFP fluorescence quenching using TC-6987, 500 uM tc6987: ligand TC-6987 500 uM; for YFP fluorescence quenching using Varenicline, 3 nM var: ligand Varenicline 3 nM; for YFP fluorescence quenching using Varenicline, 30 nM var: ligand Varenicline 30 nM; for YFP fluorescence quenching using Varenicline, 300 nM var: ligand Varenicline 300 nM; for YFP fluorescence quenching using Varenicline, 500 nM var: ligand Varenicline 500 nM; for YFP fluorescence quenching using Varenicline, 1 uM var: ligand Varenicline 1 uM
Procedure, shortened: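 Percent quench compares mean YFP signal over the final 10 s with the 15 s baseline before ligand, added in iodide-containing extracellular solution (pH 7.2). Cells were LX293T carrying a YFP anion reporter, transiently transfected with the channel construct; plates were preincubated 30 min at 37 °C.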

[1] = 1 nM CNL001, first column so headed
[2] = 1 nM CNL001, second column so headed
[3] = 1 nM brd (TC-5619/Bradanicline)
[4] = 3 nM brd (TC-5619/Bradanicline)
[5] = 10 nM CNL001, first column so headed
[6] = 10 nM CNL001, second column so headed
[7] = 10 nM brd (TC-5619/Bradanicline)
[8] = 30 nM brd (TC-5619/Bradanicline)
[9] = 50 nM CNL001, first column so headed
[10] = 50 nM CNL001, second column so headed
[11] = 100 nM CNL001, first column so headed
[12] = 100 nM CNL001, second column so headed
[13] = 300 nM brd (TC-5619/Bradanicline)
[14] = 1 uM CNL001, first column so headed
[15] = 1 uM CNL001, second column so headed

B1: CODA1025: engineered receptor: R101F, L131G in SEQ ID NO: 33 (protein)
chain: MRCSPGGVWLALAASLLHVSLQGEFQRKLYKELVKNYNPLERPVANDSQPLTVYFSLSLLQIMDVDEKNQVLTTNIWLQMSWTDHYLQWNVSEYPGVKTVFFPDGQIWKPDILLYNSADERFDATFHTNVGVNSSGHCQYLPPGIFKSSCPMDLKNFPMDVQTCKLKFGSWSYGGWSLDLQMQEADISGYIPNGEWDLVGIPGKRSERFYECCKEPYPDVTFTVTMRRRMGYYLIQMYIPSLLIVILSWISFWINMDAAPARVGLGITTVLTMTTQSSGSRASLPKVSYVKAIDIWMAVCLLFVFSALLEYAAVNFVSRQHKELLRFRRKRRHHKSPMLNLFQEDEAGEGRFNFSAYGMGPACLQAKDGISVKGANNSNTTNPPPAPSKSPEEMRKLFIQRAKKIDKISRIGFPMAFLIFNMFYWIIYKIVRREDVHNQ
modifications: synthetic sequence of chimeric LGIC
- YFP fluorescence quenching using CNL001 (percent quench) [1]: −18.527%
- YFP fluorescence quenching using CNL001 (percent quench) [2]: −21.577%
- YFP fluorescence quenching using TC-5619/Bradanicline (percent quench) [3]: −10.61%
- YFP fluorescence quenching using TC-5619/Bradanicline (percent quench) [4]: 2.63%
- YFP fluorescence quenching using CNL001 (percent quench) [5]: 14.063%
- YFP fluorescence quenching using CNL001 (percent quench) [6]: 49.818%
- YFP fluorescence quenching using TC-5619/Bradanicline (percent quench) [7]: 17.71%
- YFP fluorescence quenching using TC-6683 (percent quench) (30 nM TC-6683): −1.645%
- YFP fluorescence quenching using TC-5619/Bradanicline (percent quench) [8]: 68.48%
- YFP fluorescence quenching using CNL001 (percent quench) [9]: 77.765%
- YFP fluorescence quenching using CNL001 (percent quench) [10]: 79.23%
- YFP fluorescence quenching using ABT-126 (percent quench) (50 nM abt (ABT-126)): −11.53%
- YFP fluorescence quenching using CNL001 (percent quench) [11]: 80.544%
- YFP fluorescence quenching using CNL001 (percent quench) [12]: 80.695%
- YFP fluorescence quenching (percent quench) (100 nM CNL002): 12.48%
- YFP fluorescence quenching using ABT-126 (percent quench) (100 nM abt (ABT-126)): −7.61%
- YFP fluorescence quenching using AZD-0328 (percent quench) (100 nM azd0328): 6.26%
- YFP fluorescence quenching using TC-6683 (percent quench) (300 nM TC-6683): 3.043%
- YFP fluorescence quenching using ABT-126 (percent quench) (300 nM abt (ABT-126)): 6.55%
- YFP fluorescence quenching using AZD-0328 (percent quench) (300 nM azd0328): 37.98%
- YFP fluorescence quenching using TC-5619/Bradanicline (percent quench) [13]: 75.12%
- YFP fluorescence quenching using CNL001 (percent quench) [14]: 81.191%
- YFP fluorescence quenching using CNL001 (percent quench) [15]: 82.385%
- YFP fluorescence quenching (percent quench) (1 uM CNL002): 46.04%
- YFP fluorescence quenching using ABT-126 (percent quench) (1 uM abt (ABT-126)): 25.08%
- YFP fluorescence quenching using TC-6683 (percent quench) (3 uM TC-6683): 0.082%
- YFP fluorescence quenching (percent quench) (10 uM ach (acetylcholine)): 12.57%
- YFP fluorescence quenching (percent quench) (30 uM CNL002): 39.82%
- YFP fluorescence quenching using TC-6683 (percent quench) (30 uM TC-6683): 2.449%
- YFP fluorescence quenching using AZD-0328 (percent quench) (30 uM azd0328): 79.31%
- YFP fluorescence quenching (percent quench) (50 uM ach (acetylcholine)): −3.46%
- YFP fluorescence quenching using TC-6683 (percent quench) (100 uM TC-6683): 10.437%
- YFP fluorescence quenching (percent quench) (100 uM ach (acetylcholine)): 12.65%
- YFP fluorescence quenching (percent quench) (300 uM ach (acetylcholine)): −6.96%
- YFP fluorescence quenching (percent quench) (500 uM ach (acetylcholine)): −6.77%
- YFP fluorescence quenching (percent quench) (1 mM ach (acetylcholine)): 19.42%
- YFP fluorescence quenching (percent quench) (3 mM ach (acetylcholine)): 65.06%
- YFP fluorescence quenching using Facinicline, 30 nM fac: −8.99
- YFP fluorescence quenching using Facinicline, 300 nM fac: 10.21
- YFP fluorescence quenching using Facinicline, 30 uM fac: 78.24
- YFP fluorescence quenching using TC-6987, 1 uM tc6987: −13.32
- YFP fluorescence quenching using TC-6987, 10 uM tc6987: 43.71
- YFP fluorescence quenching using TC-6987, 500 uM tc6987: 53.98
- YFP fluorescence quenching using Varenicline, 3 nM var (first column): 48.074
- YFP fluorescence quenching using Varenicline, 3 nM var (second column): 60.978
- YFP fluorescence quenching using Varenicline, 30 nM var (first column): 70.023
- YFP fluorescence quenching using Varenicline, 30 nM var (second column): 69.433
- YFP fluorescence quenching using Varenicline, 300 nM var (first column): 78.989
- YFP fluorescence quenching using Varenicline, 300 nM var (second column): 79.21
- YFP fluorescence quenching using Varenicline, 500 nM var (first column): 79.212
- YFP fluorescence quenching using Varenicline, 500 nM var (second column): 79.771
- YFP fluorescence quenching using Varenicline, 1 uM var (first column): 79.538
- YFP fluorescence quenching using Varenicline, 1 uM var (second column): 80.577

B2: CODA1027: engineered receptor: R101F, L131D in SEQ ID NO: 33 (protein)
chain: MRCSPGGVWLALAASLLHVSLQGEFQRKLYKELVKNYNPLERPVANDSQPLTVYFSLSLLQIMDVDEKNQVLTTNIWLQMSWTDHYLQWNVSEYPGVKTVFFPDGQIWKPDILLYNSADERFDATFHTNVDVNSSGHCQYLPPGIFKSSCPMDLKNFPMDVQTCKLKFGSWSYGGWSLDLQMQEADISGYIPNGEWDLVGIPGKRSERFYECCKEPYPDVTFTVTMRRRMGYYLIQMYIPSLLIVILSWISFWINMDAAPARVGLGITTVLTMTTQSSGSRASLPKVSYVKAIDIWMAVCLLFVFSALLEYAAVNFVSRQHKELLRFRRKRRHHKSPMLNLFQEDEAGEGRFNFSAYGMGPACLQAKDGISVKGANNSNTTNPPPAPSKSPEEMRKLFIQRAKKIDKISRIGFPMAFLIFNMFYWIIYKIVRREDVHNQ
modifications: synthetic sequence of chimeric LGIC
- YFP fluorescence quenching using CNL001 (percent quench) [1]: 24.049%
- YFP fluorescence quenching using CNL001 (percent quench) [2]: 36.755%
- YFP fluorescence quenching using TC-5619/Bradanicline (percent quench) [3]: −10.07%
- YFP fluorescence quenching using TC-5619/Bradanicline (percent quench) [4]: −0.8%
- YFP fluorescence quenching using CNL001 (percent quench) [5]: 52.927%
- YFP fluorescence quenching using CNL001 (percent quench) [6]: 61.449%
- YFP fluorescence quenching using TC-5619/Bradanicline (percent quench) [7]: 1.74%
- YFP fluorescence quenching using TC-6683 (percent quench) (30 nM TC-6683): 1.189%
- YFP fluorescence quenching using TC-5619/Bradanicline (percent quench) [8]: 53.95%
- YFP fluorescence quenching using CNL001 (percent quench) [9]: 67.308%
- YFP fluorescence quenching using CNL001 (percent quench) [10]: 68.77%
- YFP fluorescence quenching using ABT-126 (percent quench) (50 nM abt (ABT-126)): −11.89%
- YFP fluorescence quenching using CNL001 (percent quench) [11]: 69.049%
- YFP fluorescence quenching using CNL001 (percent quench) [12]: 71.613%
- YFP fluorescence quenching (percent quench) (100 nM CNL002): 7.75%
- YFP fluorescence quenching using ABT-126 (percent quench) (100 nM abt (ABT-126)): −16.07%
- YFP fluorescence quenching using AZD-0328 (percent quench) (100 nM azd0328): −4.76%
- YFP fluorescence quenching using TC-6683 (percent quench) (300 nM TC-6683): 0.939%
- YFP fluorescence quenching using ABT-126 (percent quench) (300 nM abt (ABT-126)): −11.21%
- YFP fluorescence quenching using AZD-0328 (percent quench) (300 nM azd0328): −7.52%
- YFP fluorescence quenching using TC-5619/Bradanicline (percent quench) [13]: 76.74%
- YFP fluorescence quenching using CNL001 (percent quench) [14]: 71.811%
- YFP fluorescence quenching using CNL001 (percent quench) [15]: 69.907%
- YFP fluorescence quenching (percent quench) (1 uM CNL002): 61.97%
- YFP fluorescence quenching using ABT-126 (percent quench) (1 uM abt (ABT-126)): −9.38%
- YFP fluorescence quenching using TC-6683 (percent quench) (3 uM TC-6683): 1.327%
- YFP fluorescence quenching (percent quench) (10 uM ach (acetylcholine)): −1.62%
- YFP fluorescence quenching (percent quench) (30 uM CNL002): 65.77%
- YFP fluorescence quenching using TC-6683 (percent quench) (30 uM TC-6683): −0.845%
- YFP fluorescence quenching using AZD-0328 (percent quench) (30 uM azd0328): 74.9%
- YFP fluorescence quenching (percent quench) (50 uM ach (acetylcholine)): −1.6%
- YFP fluorescence quenching using TC-6683 (percent quench) (100 uM TC-6683): −3.136%
- YFP fluorescence quenching (percent quench) (100 uM ach (acetylcholine)): −2.62%
- YFP fluorescence quenching (percent quench) (300 uM ach (acetylcholine)): −6.12%
- YFP fluorescence quenching (percent quench) (500 uM ach (acetylcholine)): −7.71%
- YFP fluorescence quenching (percent quench) (1 mM ach (acetylcholine)): −5.73%
- YFP fluorescence quenching (percent quench) (3 mM ach (acetylcholine)): 33.69%
- YFP fluorescence quenching using Facinicline, 30 nM fac: −10.05
- YFP fluorescence quenching using Facinicline, 300 nM fac: −12.54
- YFP fluorescence quenching using Facinicline, 30 uM fac: 70.96
- YFP fluorescence quenching using TC-6987, 1 uM tc6987: 0.88
- YFP fluorescence quenching using TC-6987, 10 uM tc6987: 56.27
- YFP fluorescence quenching using TC-6987, 500 uM tc6987: 71.3
- YFP fluorescence quenching using Varenicline, 3 nM var (first column): −3.367
- YFP fluorescence quenching using Varenicline, 3 nM var (second column): −0.431
- YFP fluorescence quenching using Varenicline, 30 nM var (first column): −0.761
- YFP fluorescence quenching using Varenicline, 30 nM var (second column): 2.989
- YFP fluorescence quenching using Varenicline, 300 nM var (first column): 2.966
- YFP fluorescence quenching using Varenicline, 300 nM var (second column): 10.211
- YFP fluorescence quenching using Varenicline, 500 nM var (first column): 15.278
- YFP fluorescence quenching using Varenicline, 500 nM var (second column): 20.84
- YFP fluorescence quenching using Varenicline, 1 uM var (first column): 37.104
- YFP fluorescence quenching using Varenicline, 1 uM var (second column): 42.439
